Measured values from paper PMC9209446, “Structural basis of template strand deoxyuridine promoter recognition by a viral RNA polymerase”.

Molecular target: AR9 nvRNAP promoter-specificity subunit gp226 (sigma-like);AR9 nvRNAP betaN subunit gp105;AR9 nvRNAP betaC … (Bacillus phage AR9 (Bacillus subtilis …, UniProt A0A172JIC8;A0A172JI16;A0A172JHZ2;A0A172JIH0;A0A172JI62 …, ||||))
Experiment: X-ray crystallography; crystals from 150 mM MIB pH 5, 150 mM LiCl, 13% PEG 1500; 4 mM MgCl2 in DNA annealing buffer; Complex for structures: 34 uM holoenzyme + 50 uM DNA, 30 min at room temperature; DNA annealed in 20 mM Bis-tris propane pH 6.8, 100 mM NaCl, 4 mM MgCl2, 0.5 mM EDTA; crystallized at 19 C
Settings: protein: recombinant;recombinant;recombinant;recombinant;recombinant; tags: ;;;;; copies: 1;1;1;1;1; 14 bp duplex with 18 nt 3' overhang on strand 1

B1: P077 promoter forked oligonucleotide, template [-16;+16] all U / non-template [+3;+16] (dsDNA)
DNA 1: CTCCAATATGTGATATAATATAUUGUUUATTG
DNA 2: ATCACATATTGGAG
modifications: deoxyuridine at the printed U positions of strand 1; both strands DNA
Q: Does B1 bind?
A: binds
